{"source": "patent US20050114927", "proteins": {"B1": {"name": "Pokeweed antiviral protein (PAP) (protein)", "chain": "VNTIIYNVGSTTISKYATFLNDLRNEAKDPSLKCYGIPMLPNTNTNPKYVLVELQGSNKKTITLMLRRNNLYVMGYSDPFETNKCRYHIFNDISGTERQDVETTLCPNANSRVSKNINFDSRYPTLESKAGVKSRSQVQLGIQILDSNIGKISGVMSFTEKTEAEFLLVAIQMVSEAARFKYIENQVKTNFNRAFNPNPKVLNLQETWGKISTAIHDAKNGVLPKPLELVDASGAKWIVLRVDEIKPDVALLNYVGGSCQTTY"}}, "target": "Yeast wild-type L3 incorporated into ribosomes of wild-type cells", "data": [{"protein": "B1", "values": [{"measurement": "association with isolated ribosomes (immunoblot with antibody against PAP)", "value": "Both PAP and PAPx were associated with ribosomes in wild-type cells"}]}]}
